Measurements as given in patent publication US20130216547A1 (Regeneron, published 2013).

Tests used:
[1] = target: T1, mouse big-ET-1 (mouse); assay: cell-based or functional assay
T1 peptide: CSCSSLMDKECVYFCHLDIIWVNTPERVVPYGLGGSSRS

[2] = target: T2, small-ET-1 (endothelin-1) (human); assay: SPR (Biacore T200), 37 C, mAb capture, peptide analyte
T2 construct: 21 amino acid peptide, same for mouse and human; also called human small-ET-1; EDN-1
T2 peptide: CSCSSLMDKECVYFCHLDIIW
Description: (§1) Measurements were conducted on a T200 Biacore instrument (Biacore Life Sciences division of GE Healthcare, Piscataway, N.J.). […] Peptide binding was monitored for 3 min while dissociation of mAb-bound peptide was monitored for 4 min in HBST running buffer (0.01 M HEPES pH 7.4, 0.15 M NaCl, 3 mM EDTA, 0.005% v/v Surfactant P20). Kinetic association (kₐ) and dissociation (kd) rate constants were determined by processing and fitting the data to a 1:1 binding model using Scrubber 2.0 curve fitting software.

[3] = target: T3, human big-endothelin-1 (big-ET-1) (human); assay: as above
T3 construct: 38 amino acid peptide; also called human big-ET-1; hBig-ET-1
T3 peptide: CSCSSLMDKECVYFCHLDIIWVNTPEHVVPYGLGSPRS
Description: as §1

[4] = target: T3, human big-endothelin-1 (big-ET-1); assay: cell-based or functional assay
[5] = target: T1, mouse big-ET-1; assay: SPR (Biacore T200), 37 C, mAb capture, peptide analyte
Description: as §1

| Binder | Blocking IC50(M), 20 nM mBig-ET-1 + 5 nM mECE1; 293/ETaR/NFAT-Luc luciferase [1] | binding result [2] | Kd [3] | T½ [3] | koff [3] | kon [3] | Blocking IC50(M), 10 nM hBig-ET-1 + 3 nM hECE1; 293/ETaR/NFAT-Luc luciferase [4] | Kd [5] | T½ [5] | koff [5] | kon [5] |
| --- | --- | --- | --- | --- | --- | --- | --- | --- | --- | --- | --- |
| H4H6316P (antibody, V domains shown, Human IgG4 Fc (prefix H4H)) VH: QVQLVESGGGVVQPGRSLRLSCEASGFTFSSYGMHWVRQAPGKGLEWVAVFWYDGSNKYYADSVKGRFTISRDNSKNTLYLQMNSLTAEDTAIYYCARAYDAFDIWGQGTMVTVSS VL: not shown | > 1e-07 M | no binding | 14.8 nM | 1620 s | 0.000428 s⁻¹ | 28800 M⁻¹ s⁻¹ | – | – | – | – | – |
| H4H6311P (antibody, V domains shown, Human IgG4 Fc (prefix H4H)) VH: QVQLVESGGGVVQPGRSLRLSCAASGFTFSTYGMHWVRQAPGKGLEWVAVFWFDGSNKYYADSVKGRFTISRDNSKNTIYLQMNSLRAEDTAIYYCARAYDAFDIWGQGTMVTVSS VL: not shown | – | no binding | 15.2 nM | 2400 s | 0.000292 s⁻¹ | 19200 M⁻¹ s⁻¹ | – | – | – | – | – |
| H4H6317P (antibody, V domains shown, Human IgG4 Fc (prefix H4H)) VH: QVQLVESGGGVVQPGRSLRLSCAASGFTFSSYGMHWVRQAPGKGLEWVAVLWYDGRNKYYADSVKGRFTISRDNSKNTLYLQMNSLRAEDTAVYYCARSYDAFDIWGQGTMVTVSS VL: DIQMTQSPSTLSASVGDRVTITCRASQSISSWLAWFQQGPGRAPKLLIYKASTLQSGVPSRFSGSGSGTEFTLTISSLQPDDFATYYCQQYRSYSPTFGQGTKVEIK | > 1e-07 M | no binding | 5.42 nM | 3480 s | 0.000199 s⁻¹ | 36700 M⁻¹ s⁻¹ | – | – | – | – | – |
| H4H6323P (antibody, V domains shown, Human IgG4 Fc (prefix H4H)) VH: QITLKESGPPLVKPTQTLTLTCTFSGFSLNTNGMGVGWIRQPPGKALEWLTLIYWNDDKRYSPSLKTRLTITKDTSKNQVVLTMTNMDPVDTATYYCARFGSGTYWGQGTLVTVSS VL: DIVMTQSPLSLPVTPGEPASISCRSSQSLLHSYGYNFLDWFLQKPGQSPQLLIYLGSHRASGVPDRFSGSGSGTDFTLKISRVEAEDVGVYYCMQALQTPLTFGGGTKVEIK | 4e-09 M | no binding | 10.1 nM | 120 s | 0.00569 s⁻¹ | 565000 M⁻¹ s⁻¹ | 7.6e-09 M | 32.9 nM | 36 s | 0.0192 s⁻¹ | 580000 M⁻¹ s⁻¹ |
| H4H6329P (antibody, V domains shown, Human IgG4 Fc (prefix H4H)) VH: QVQLVESGGGVVQPGRSLRLSCAASGFTFGSYGMHWVRQAPGKGLEWVAVIWYDGSDEYYTDSVKGRFTVSRDNSKYTLYLQMNSLRADDTAVYYCARDGYRTRGNYFDYWGQGTLVTVSS VL: DVVMTQSPLSLPVALGQPASISCRSSQSLVYSDGNTYLNWFQQRPGQSPRRLIYKVSNRDSGVPDRFGGSGSGTDFTLKISRVEAEDVGLYYCMQGTHWPPTFGGGTKVEIK | > 1e-07 M | no binding | 0.297 nM | 3900 s | 0.000176 s⁻¹ | 595000 M⁻¹ s⁻¹ | 3.3e-09 M | 19 nM | 3120 s | 0.000223 s⁻¹ | 11600 M⁻¹ s⁻¹ |
| H4H6330P (antibody, V domains shown, Human IgG4 Fc (prefix H4H)) VH: EVQLVESGGGLVQPGGSLRLSCAASGFTFSNYAMSWVRQAPGKGLEWVSAVSGSGVGTYYADSVKGRFTISRDNSKNTLYLQMKSLSAEDTALYYCTKTLGGTHAFDIWGQGTMVTVSS VL: DIQMTQSPSTLSASVGDRVTITCRASQSISRWLAWYQQKPGKAPKLLIYKASSLESGVPSRFSGSGSGTEFTVTINSLQPDDFATYYCQQYNSYSSFGQGTKLEIK | 1.6e-09 M | no binding | 22.9 nM | 24 s | 0.0324 s⁻¹ | 1.42e+06 M⁻¹ s⁻¹ | 1.7e-09 M | 50 nM | 12 s | 0.072 s⁻¹ | 1.5e+06 M⁻¹ s⁻¹ |
| H4H6332P (antibody, V domains shown, Human IgG4 Fc (prefix H4H)) VH: EVQLVESGEGLVQPGGSLRLSCAASGFIFSSYAMSWVRQAPGKGLEWVSAISGSGVGTYYADSVKGRFTISRDNSKNTLYLQMNSLRAEDTAVYFCAKTLSGTHAFDIWGQGTMVTVSS VL: not shown | 1.2e-09 M | no binding | 29.5 nM | 18 s | 0.0429 s⁻¹ | 1.45e+06 M⁻¹ s⁻¹ | 3.1e-09 M | 100 nM | 6 s | 0.196 s⁻¹ | 2e+06 M⁻¹ s⁻¹ |
| H4H6334P2 (antibody, V domains shown, Human IgG4 Fc (prefix H4H)) VH: EVQLVESGGGLVKPGGSLRLSCAVSGFTFSIDWMIWVRQAPGTGLEWVGRIKRKTDGGTTDYAAPVKGRFTISRDDSKNTLYLQMNSLKTEDTAIYYCATGGFERWGQGTLVTVSS VL: not shown | – | no binding | 225 nM | 18 s | 0.0349 s⁻¹ | 155000 M⁻¹ s⁻¹ | – | – | – | – | – |
| H4H6492N2 (antibody, V domains shown, Human IgG4 Fc (prefix H4H)) VH: EVQLVESGGGLVKPGGSLRVSCVASGFTFSNAWMTWVRQTPGKGLEWVGRIKSRTDGGTVDYVAPVKGRFTISRDDSKNTLYLQMNSLKAEDTAVYYCRADLDYWGQGTLVTVSS VL: DVVMTQSPLSLPVSLGQPASISCRSSQSLVHSDGITYLNWFQQRPGQSPRRLIYKISNRDSGVPDRFSGSGSGTDFTLKFSRVEAEDVGVYFCMQGTHWPYTFGQGTKLEIK | – | no binding | 70 nM | 24 s | 0.0297 s⁻¹ | 424000 M⁻¹ s⁻¹ | 4.17e-08 M | – | – | – | – |
| H4H6338P (antibody, V domains shown, Human IgG4 Fc (prefix H4H)) VH: EVQLVESGGGLVQPGGSLRLSCAASGFAFSSYAMTWVRQTPGKGLEWVSSISGSGGSTYYADSVKGRFTISRDNSKNTLYLQMNSLRAEDTAVYYCAKARTGTHAFDIWGQGTMVTVSS VL: not shown | – | no binding | – | 6 s | 0.12 s⁻¹ | 454000 M⁻¹ s⁻¹ | – | – | 0.6 s | 0.885 s⁻¹ | 190000 M⁻¹ s⁻¹ |
| H4H6340P (antibody, V domains shown, Human IgG4 Fc (prefix H4H)) VH: EVQLVESGGGLVQPGGSLRLSCAASGFTFSSSAMSWVRQAPGKGLEWVSAISGSGVGTYYAASVKGRFTISRDNSKNILYLQMNDLRAEDTALYYCPKARTGTHAFDIWGQGTMVTVSS VL: not shown | 1.5e-09 M | no binding | 11 nM | 30 s | 0.0249 s⁻¹ | 2.3e+06 M⁻¹ s⁻¹ | 2.1e-09 M | 47 nM | 12 s | 0.0603 s⁻¹ | 1.3e+06 M⁻¹ s⁻¹ |
| H4H6343P (antibody, V domains shown, Human IgG4 Fc (prefix H4H)) VH: EVQLLESGGGLVQPGGSLRLSCAASGFTFSSYAMSWVRQAPGKGLEWVSAISGSGVGTYYADSVKGRFTISRDNSKNTLYLQMNSLRAEDTAVYYCPKARTGTHAFDIWGQGTMVTVSS VL: not shown | – | no binding | – | 36 s | 0.018 s⁻¹ | 1.61e+06 M⁻¹ s⁻¹ | – | – | 18 s | 0.0453 s⁻¹ | 1.8e+06 M⁻¹ s⁻¹ |
| H4H6345P (antibody, V domains shown, Human IgG4 Fc (prefix H4H)) VH: EVQLVESGGGLVQPGGSLRLSCAASGFIFSSYAMTWVRQAPGKGLEWVSAISGSGVSTYYADSVKGRFTISRDNSKNTLYLQMNSLRIEDTAVYYCGKARTGTHAFDIWGQGTMVTVSS VL: DIQMTQSPSTLSASVGDRVTITCRASQSISRWLAWYQQKPGKAPKLLIYKASSLETGVPSRFSGSGSGTEFTLTISSLQPDDFGTYYCQQYNSYSSFGPGTKVDIK | – | no binding | 87.4 nM | 12 s | 0.058 s⁻¹ | 663000 M⁻¹ s⁻¹ | – | 65 nM | 6 s | 0.0974 s⁻¹ | 1.5e+06 M⁻¹ s⁻¹ |
| H4H6347P (antibody, V domains shown, Human IgG4 Fc (prefix H4H)) VH: EVQLVESGGGLVQPGGSLRLSCAASGFTFSNYAMSWVRQAPGKGLEWVSAISGSGVGTYYAASVKGRFTISRDNSKNTLYLQMNSLRAEDTAVYYCPKARTGTHAFDIWGQGTMVTVSS VL: not shown | 1e-09 M | no binding | 13.2 nM | 30 s | 0.0239 s⁻¹ | 1.81e+06 M⁻¹ s⁻¹ | 1.5e-09 M | 13 nM | 18 s | 0.0414 s⁻¹ | 3.1e+06 M⁻¹ s⁻¹ |
| H4H6353P (antibody, V domains shown, Human IgG4 Fc (prefix H4H)) VH: EVQLVESGGGLVKPGGSLRLSCAASGFSFNYAWMSWVRQAPGKGLEWIGRIKSKINGGTTDYTAPVKGRFTISRDDSKNTLYLQMNSLKTEDTAVYYCRGDEDFWGQGTLVTVSS VL: DVVMTQSPLSLPVTLGQPASISCRSSQSLVYSDGFTYLNWFRQRPGQSPRRLIYKVSNRDSGVPDRFSGSGSGTDFTLRISRVEAEDVGIYYCMQGTHWPYTFGQGTKLEIK | > 1e-07 M | no binding | 1.02 nM | 600 s | 0.00116 s⁻¹ | 1.14e+06 M⁻¹ s⁻¹ | 1.8e-09 M | 800 nM | 300 s | 0.00236 s⁻¹ | 2900 M⁻¹ s⁻¹ |
